1 molecule from article PMC6423499 (2019) can be followed below.

The target of this test is VHL (VHL/ElonginB/ElonginC, VCB) as used in solution (UniProt P40337 1-213; Q15370 1-104; Q15369 17-112). As to the kind of experiment: FP; MZ1 ternary.

One may read the Ki as a dissociation constant, usually derived from enzyme kinetics or from competition with a known ligand.

Chain of VHL (VHL/ElonginB/ElonginC, VCB) as used in solution (P40337 whole entry, chain 1 of 3): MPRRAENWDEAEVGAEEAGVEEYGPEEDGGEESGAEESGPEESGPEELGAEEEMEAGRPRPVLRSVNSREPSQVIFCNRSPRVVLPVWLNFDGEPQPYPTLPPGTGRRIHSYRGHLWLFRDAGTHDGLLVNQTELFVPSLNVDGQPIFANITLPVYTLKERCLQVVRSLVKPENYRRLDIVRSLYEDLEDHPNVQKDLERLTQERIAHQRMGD
Chain of VHL (VHL/ElonginB/ElonginC, VCB) as used in solution (Q15370 1-104, chain 2 of 3): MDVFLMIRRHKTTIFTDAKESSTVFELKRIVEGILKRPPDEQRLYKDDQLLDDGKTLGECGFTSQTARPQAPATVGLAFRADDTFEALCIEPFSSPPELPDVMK
Chain of VHL (VHL/ElonginB/ElonginC, VCB) as used in solution (Q15369 17-112, chain 3 of 3): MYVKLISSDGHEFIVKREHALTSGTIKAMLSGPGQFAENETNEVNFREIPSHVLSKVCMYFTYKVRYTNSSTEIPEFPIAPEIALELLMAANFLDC

B1: Brd2^BD2 with the G-to-E point mutation at Gly382 (domain or fragment)
chain: GKLSEQLKHCNGILKELLSKKHAAYAWPFYKPVDASALELHDYHDIIKHPMDLSTVKRKMENRDYRDAQEFAADVRLMFSNCYKYNPPDHDVVAMARKLQDVFEFRYAKMPD
Regarding B1, the inhibition constant (Ki) was 6 nM.
